Values of other authors, collected in publication PMC8298264, “Function of cofactor Akirin2 in the regulation of gene expression in model human neutrophil-like HL60 cells” (Bioscience Reports, 2021).

System: AKR2
Parameters: key: A: Very high confidence in the interaction; B: High confidence in the interaction; D: Moderate confidence in the interaction
Conditions: AKR2-interacting proteins (IPs), physical interactome; ref https://doi.org/10.3390/vaccines8010077; cited from earlier work
Excerpt: Supplement BSR-2021-1120_supp1.zip/BSR-2021-1120_suppST4.xlsx, sheet "BPs related to AKR2-IPs" | column: Predicted Biological Score (PBS)

B1: UBAC1 (protein, UniProt Q9BSL1 1-405, looked up)
Ubiquitin-associated …: MFVQEEKIFAGKVLRLHICASDGAEWLEEATEDTSVEKLKERCLKHCAHGSLEDPKSITHHKLIHAASERVLSDARTILEENIQDQDVLLLIKKRAPSPLPKMADVSAEEKKKQDQKAPDKEAILRATANLPSYNMDRAAVQTNMRDFQTELRKILVSLIEVAQKLLALNPDAVELFKKANAMLDEDEDERVDEAALRQLTEMGFPENRATKALQLNHMSVPQAMEWLIEHAEDPTIDTPLPGQAPPEAEGATAAASEAAAGASATDEEARDELTEIFKKIRRKREFRADARAVISLMEMGFDEKEVIDALRVNNNQQNAACEWLLGDRKPSPEELDKGIDPDSPLFQAILDNPVVQLGLTNPKTLLAFEDMLENPLNSTQWMNDPETGPVMLQISRIFQTLNRT
Predicted Biological Score (PBS): A
